From the nanobody polyreactivity screen of Harvey et al. (2022)

Test: yeast display, Sf9 membrane polyspecificity reagent, FACS + sequencing; frameworks hold sequencing errors
Procedure, shortened: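 After 36–48 hours of galactose induction, yeast (Saccharomyces cerevisiae BJ5465) displaying a synthetic nanobody library were stained at 4 °C for 1 hour with 10% biotinylated, detergent-solubilized Sf9 membrane reagent. Streptavidin microbeads enriched the stained cells before FACS sorting into low and high (top ~1%) gates on anti-HA and streptavidin fluorescence. Each clone's polyreactivity label reflects its gate of origin.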

| Sequence | polyreactivity (PSR sort gate) |
| --- | --- |
| QVQLVESGGGLVQAGGSLRLSCAASGFTFWRNTMGCSRQAPGKETEFVAAIDWSGGSTTYAVSVKGRFTFSRDNAKNSVYLQMNSLKPEDTAVYYCAAAERRRHYWWGQESDYWGQGTQVTVSS | low polyreactivity |
| QVQLVESGGGLVQAGGSLRLSCAASGFTFWRYAMGWYRQAPGKDRELVAAISWRGSSTYYADSVKGRFTISRDNAMNTVYLQMNSLKPEDTAVSYCARYQSTYDSTYNYWGQGTQVTVSS | high polyreactivity |
| QVQLVESGGGLVQAGGSLRLSCAASGFTFWRYAMGWYRQAPGKERELVAAISRNGGRTYYADSVKGRFTISRDNAKNTVYLQMNSLKPEDTAVYYCAADSDIEYEYWGQGTQVTVSS | high polyreactivity |
| QVQLVESGGGLVQAGGSLRLSCAASGFTFWRYAMGWYRQAPGKERELVAAISRTGGRTYYADSVKGRFTISRDNAKNTVYLQMNSLKPEDTAVYYCAAVKYETYRYNYDYWGQGTQVTVSS | high polyreactivity |
| QVQLVESGGGLVQAGGSLRLSCAASGFTFWVYAMGWYRQATGKEREFVASISWTGDTTYYADSVKGRFTISRDNAKNTVYLQMNSLKPEDTAVYYCAVDTILGYDYWGQGTQVTVSS | low polyreactivity |
| QVQLVESGGGLVQAGGSLRLSCAASGFTFWYNDMGWYRQAPGKEREFVAAITTSGGNTYYADSVKGRFTISRDNAKNTVYLNMNSLIPEDTAVYYCAAEEGSSDATGYDYWGQGTQVTVSS | low polyreactivity |
| QVQLVESGGGLVQAGGSLRLSCAASGFTFWYNDMGWYRQAPGKEREFVAAITTSGGNTYYADSVKGRFTISRDNAKNTVYLQMNSLKPEDTAVYYCAAEEGSSDATGYDYWGQGTQVTVSS | low polyreactivity |
| QVQLVESGGGLVQAGGSLRLSCAASGFTFWYYAMGWYRQAPGKEREFVASISWNGGRTYYADSVKGRITISRDNAKNTVYLQMNSLKPEDTAVYYCATRVIYSFTDLKGDYWGQGTLVTVSS | high polyreactivity |
| QVQLVESGGGLVQAGGSLRLSCAASGFTFWYYAMGWYRQAPGKERELVAAITRGGSTNYADSVKGRFTISRDNAKNTVYLQMNSLKPEDTAVYYCAKRQGYPTYRRYDYWGQGTQVTVSS | high polyreactivity |
| QVQLVESGGGLVQAGGSLRLSCAASGFTFWYYAMGWYRQAPGKERELVATISRGGGSTYYADSVKGRFTISRDNAKNTVYLQMNSLKPEDTAVYYCAAETVRWWWLYDYWGQGTQVTVSS | high polyreactivity |
| QVQLVESGGGLVQAGGSLRLSCAASGFTFWYYSMGWYRQAPGKERELVASISRTGGTTYYADSVKGRFTISRDNAKNTVYLQLNSLKPEDTAVYYCNARPKVYYREYDYWGQGTQVTVSS | high polyreactivity |
| QVQLVESGGGLVQAGGSLRLSCAASGFTFYANAMGWYRQAPGKERELVAAIDQSGTSTNYADSVKGRFTISRDNAKNTVYLQMNSLKPEDTAVYYCAADSSFYYYPLILFWGDYWGQGTQVTVSS | low polyreactivity |
| QVQLVESGGGLVQAGGSLRLSCAASGFTFYAYAMGWYGQAPGKERELVAAITGRGGSTYYADSVKGRFTISRDNAKNTVYLQMNSLKPEDTAVYYCNKVKKSDKFNNFSNDYWGQGTQVTVSS | high polyreactivity |
| QVQLVESGGGLVQAGGSLRLSCAASGFTFYDYAMGWYRQAPGKEREFVAAITWSGSSTYYADSVKGRFTISRDNAKNTVYLQMNSLKPEVTAVYYCAVGPFRRRGHYPTYYRYGYWGQGTQVTVSS | high polyreactivity |
| QVQLVESGGGLVQAGGSLRLSCAASGFTFYFNAMGWYRQAPGKERELVAGITSGGSTNYADSVKGRFTISRDNAKNTVYLQMNSLKPEDTAVYYCATDLLNNVDYDYWGQGTQVTVSS | low polyreactivity |
| QVQLVESGGGLVQAGGSLRLSCAASGFTFYFYAMGWYRQAPGKERELVAAISRGGSTTYADSVKGRFTISRDNAKNTVYLQMNSLKPEDTAVYYCAVGYDIVRYSYSPFYRYDYWGQGTQVTVSS | low polyreactivity |

| Sequence | polyreactivity (PSR sort gate) |
| --- | --- |
| QVQLVESGGGLVQAGGSLRLSCAASGFTFYGNAMGWYRHAPGKERELVAAIRSGGITYYADSVKGRFTISRDNAKNTVYLQMNSLKPEDTSVYYCAAYSDYYLDQWYGYWGQGTQVTVSS | low polyreactivity |
| QVQLVESGGGLVQAGGSLRLSCAASGFTFYGNAMGWYRQAPGKERELVAAISSRVGRTYYADSVKGRFTISRDNAKNTVYLQMNSLKPEDTAVYYCAKAPYGVRRGLYDYWGQGTQVTVSS | high polyreactivity |
| QVQLVESGGGLVQAGGSLRLSCAASGFTFYGNAMGWYRQAPGKERELVAAISSTGGSTFYADSVKGRFTISRDNAKNTVYLQMNSLKPEDTAVYYCAVRRYTKFRSTRYYYWGQGTQVTVSS | high polyreactivity |
| QVQLVESGGGLVQAGGSLRLSCAASGFTFYGYAMGWYRQAPGKERELVAAISTRGSRTYYADSVKGRFTISRDNAKNTVYLQMNSLKPEDTAVYYCARRRGPSYGLDYWGQGTQVTVSS | high polyreactivity |
| QVQLVESGGGLVQAGGSLRLSCAASGFTFYGYAMGWYRQAPGKERELVASINRSGGTTYYADSVKGRFTISRDNAKNTVYLQMNSLKPEDTAVYYCAASYVYRFTKYYYWGQGTQVTVSS | high polyreactivity |
| QVQLVESGGGLVQAGGSLRLSCAASGFTFYGYGMGWYRQAPGKERELVAGISSGGGSTIYADSVKGRFTISRDNAKNTVYLQMNSLKPEDTAVYYCAADYWPYSYDTYPAEFDYWGQGTQVTVSS | low polyreactivity |
| QVQLVESGGGLVQAGGSLRLSCAASGFTFYHNAMGWYRQAPGKERELVATITARGGRTYYADSVKGRFTISRDNAKNTVYLQMNSLKPVDTAVYYCNVKASRGYTYEYDYWGQGTQVTVSS | high polyreactivity |
| QVQLVESGGGLVQAGGSLRLSCAASGFTFYKYTMGWYRQAPGKERELVAAISARGGSTYYADSVKGRFTISRDNAKNTVYLQMNSLKPEDTSVYYCAADFWRTYGLGYDYWGQGTQVTVSS | high polyreactivity |
| QVQLVESGGGLVQAGGSLRLSCAASGFTFYKYVMGWYRQAPGKERELVAAITQGGGSTYYADSVKGRFTISRDNAKNTVYLQMNSLKPEDTAVYYCAAVTRGSRGVNFGYWGQGTQVTVSS | high polyreactivity |
| QVQLVESGGGLVQAGGSLRLSCAASGFTFYLYTIGWYRQAPWKERELVATITSDGGTNYADSVKVRFTISRDNAKNTLYLQMNSLKPEDTAVYYCNAASRRGSRKQAKYDYWGQGTQVTVSS | low polyreactivity |
| QVQLVESGGGLVQAGGSLRLSCAASGFTFYLYTMGWYRQAPGKERELVAAISWRGGGTYYADSVKGRFTISRDNAKNTVYLQMNSLKPEDTAVYYCAAYWRRRLDYYYWGQGTQVTVSS | high polyreactivity |
| QVQLVESGGGLVQAGGSLRLSCAASGFTFYLYTMGWYRQAPGKERELVATINSDGGTNYADSVKGRFTISRDNAKNSVYLQMNSLKPEDTAVYYCNAASRRGSRKQAKYEYWGQGTQVTVSS | low polyreactivity |
| QVQLVESGGGLVQAGGSLRLSCAASGFTFYNNAMGWYRQAPGKERELVAVITSNGGRTYYADSVKGRFTISRDNAKNTVYLQMNSLKPEDTAVYYCAKDYKALYLYHYRISGGDVDYWGQGTQVTVSS | low polyreactivity |
| QVQLVESGGGLVQAGGSLRLSCAASGFTFYPYAMGWYRQAPGKERELVAAITSGGRTNYADSVKGRFTISRDNAKNTVYLQMNSLKPEDTAVYYCNTVSWWGRNYQDEYYYWGQGTQVTVSS | high polyreactivity |
| QVQLVESGGGLVQAGGSLRLSCAASGFTFYPYTMGWYRQAPGKERELVAAISSSGGSTYYADSVKGRFTISRDNAKNTVYLQMNSLKPEDTAVYYCNKYQRNWFSRAPMDYWGQGTQVTVSS | high polyreactivity |
